# Results reported in patent US20240101642A1.
# Target: phosphopeptide-ligated β2AR with a deletion of the third intracellular loop (β2ARppΔ238-267), in HDL particles (human), P07550
# Assay: cell-based or functional assay
binder,measurement,value
"β-arrestin1, minimal cysteine and truncated variant of rat βarr1 (βarr1-MC-393), P29066 1-393 (protein, UniProt P29066 1-393, looked up) MGDKGTRVFKKASPNGKLTVYLGKRDFVDHIDLVDPVDGVVLVDPEYLKERRVYVTLTAAFRYGREDLDVLGLTFRKDLFVANVQSFPPAPEDKKPLTRLQERLIKKLGEHAYPFTFEIPPNLPSSVTLQPGPEDTGKAIGVDYEVKAFVAENLEEKIHKRNSVRLVIRKVQYAPERPGPQPTAETTRQFLMSDKPLHLEASLDKEIYYHGEPISVNVHVTNNTNKTVKKIKISVRQYADIVLFNTAQYKVPVAMEEADDTVAPSSTFSKVYTLTPFLANNREKRGLALDGKLKHEDTNLASSTLLREGANREILGIIVSYKVKVKLVVSRGGLLGDLASSDVAVELPFTLMHPKPKEEPPHREVPESETPVDTNLIELDTNDDDIVFEDFAR",fold increase of agonist affinity by the transducer,10 fold
same,"log IC50 of isoproterenol (ISO), competition radioligand binding, in the presence of βarr1 (no transducer: -6.91+/-0.04)",-7.63 log
